B1: Seq. ID. No. 192: H-Aib-(CNB)-G-T(allo)-(α-Me-2F-Phe)-T(allo)-SD-Bip(OMe)-(CH2)-(2F-APPA) (peptide)
peptide: H[Aib][CNB]G[aThr][αMePhe(2-F)][aThr]SD[Bip(2'-Et-4'-OMe)][2F‑APPA]
modifications: reading uncertain; also: reduced (CH2) bond between 10 and 11
B2: Seq. ID. No. 31: H-Aib-(CNB)-GTFTSD-Bip(OMe)-(ACPP) (peptide)
peptide: H[Aib][CNB]GTFTSD[Bip(2'-Et-4'-OMe)][ACPP]
modifications: reading uncertain
B3: Seq. ID. No. 28: H-(APP)-QGTFTSD-Bip(OMe)-(AMCB) (peptide)
peptide: H[Ac5c]QGTFTSD[Bip(2'-Et-4'-OMe)][AMCB]
B4: Seq. ID. No. 197: CH3CO-H-Aib-QG-T(allo)-(α-Me-2F-Phe)-T(allo)-SD-(CH2)-Bip(OMe)-(CH2)-(APPA) (peptide)
peptide: Ac-H[Aib]QG[aThr][αMePhe(2-F)][aThr]SD[Bip(2'-Et-4'-OMe)][hhPhe]
modifications: also: reduced (CH2) bonds between 9-10 and 10-11
B5: Seq. ID. No. 51: HSQGTFTSD-Bip(OMe)-(2,4-diCl-APPA) (peptide)
peptide: HSQGTFTSD[Bip(2'-Et-4'-OMe)][2,4‑diCl‑APPA]
modifications: reading uncertain
B6: Seq. ID. No. 199: CH3CO-H-Aib-QG-T(allo)-(α-Me-2F-Phe)-T(allo)-SD-(CH2)-Bip(OMe)-(CH2)-(2F-APPA) (peptide)
peptide: Ac-H[Aib]QG[aThr][αMePhe(2-F)][aThr]SD[Bip(2'-Et-4'-OMe)][2F‑APPA]
modifications: also: reduced (CH2) bonds between 9-10 and 10-11
B7: Seq. ID. No. 172: CH3OCO-H-Aib-QGT-(α-Me-2F-Phe)-TSD-(C═S)-Bip(OMe)-(C═S)-(2F-APPA) (peptide)
peptide: Moc-H[Aib]QGT[αMePhe(2-F)]TSD[Bip(2'-Et-4'-OMe)][2F‑APPA]
modifications: also: thioamide bonds between residues 9-10 and 10-11
B8: Seq. ID. No. 9: H-(α-Me-Pro)-QGTFTSD-Bip(OMe)-(APPA) (peptide)
peptide: H[αMeP]QGTFTSD[Bip(2'-Et-4'-OMe)][hhPhe]
B9: Seq. ID. No. 150: CH3OCO-H-Aib-QG-T(allo)-(α-Me-2F-Phe)-T(allo)-S-(NMe)D-((NMe)Bip(OMe))-((NMe)(APPA)) (peptide)
peptide: Moc-H[Aib]QG[aThr][αMePhe(2-F)][aThr]S[NMeD][NMeBip(OMe)][NMeAPPA]
modifications: reading uncertain
B10: Seq. ID. No. 177: H-Aib-QG-T(allo)-(α-Me-2F-Phe)-T(allo)-SD-(C═S)-Bip(OMe)-(C═S)-(APPA) (peptide)
peptide: H[Aib]QG[aThr][αMePhe(2-F)][aThr]SD[Bip(2'-Et-4'-OMe)][hhPhe]
modifications: also: thioamide bonds between residues 9-10 and 10-11
B11: Seq. ID. No. 170: CH3OCO-H-Aib-QGT-(α-Me-2F-Phe)-TSD-(C═S)-Bip(OMe)-(C═S)-(APPA) (peptide)
peptide: Moc-H[Aib]QGT[αMePhe(2-F)]TSD[Bip(2'-Et-4'-OMe)][hhPhe]
modifications: also: thioamide bonds between residues 9-10 and 10-11

Starred links: 1 amine or outer side, 2 acyl side, 3 side chain; linkers in the order of their positions; H or OH if unused. Non-standard residues stand in square brackets, D forms with d. No end group written: not given here. *: point of attachment. AMCB = 2-amino-5-(4-chloro-2-methylphenyl)pentanoic acid, Cc1cc(Cl)ccc1CCC[C@H](N[*:1])C(=O)[*:2]; ACPP = 2-amino-5-(3-chlorophenyl)pentanoic acid, O=C([C@H](CCCc1cccc(Cl)c1)N[*:1])[*:2]; Bip(2'-Et-4'-OMe) = CCc1cc(OC)ccc1-c1ccc(C[C@H](N)C(=O)O)cc1; 2F‑APPA = 2-amino-5-(2-fluorophenyl)pentanoic acid; αMePhe(2-F) = C[C@](N)(Cc1ccccc1F)C(=O)O; NMeBip(OMe) = N-methylated Bip(OMe); hhPhe = N[C@@H](CCCc1ccccc1)C(=O)O; 2,4‑diCl‑APPA = not defined here; NMeD = CN[C@@H](CC(=O)O)C(=O)O; aThr = C[C@H](O)[C@H](N)C(=O)O; αMeP = C[C@@]1(C(=O)O)CCCN1; NMeAPPA = not defined here; Ac5c = NC1(C(=O)O)CCCC1; CNB = not defined here; Aib = CC(C)(N)C(=O)O; Moc = COC(=O)*

The target in the assay is human glucagon receptor (human, UniProt P47871 26-477). In words: cell-based or functional assay.
Regarding B1, the “inhibition of cAMP production, 1 nM” value was 4 pmol/ml/µg prt; the “inhibition of cAMP production, 10 nM” value turned out to be 2 pmol/ml/µg prt; the “inhibition of cAMP production, 100 nM” value came to 0 pmol/ml/µg prt; the “inhibition of cAMP production, 1 µM” value came to 0 pmol/ml/µg prt. In addition, the “inhibition of cAMP production, 10 µM” value stood at 0 pmol/ml/µg prt.

Consider B2, for which the “inhibition of cAMP production, 1 nM” value came out at 6 pmol/ml/µg prt; the “inhibition of cAMP production, 10 nM” value amounted to 5 pmol/ml/µg prt; the “inhibition of cAMP production, 100 nM” value was determined as 2 pmol/ml/µg prt; the “inhibition of cAMP production, 1 µM” value was determined as 0 pmol/ml/µg prt. The “inhibition of cAMP production, 10 µM” value was determined as 0 pmol/ml/µg prt.

Regarding B3, the “inhibition of cAMP production, 1 nM” value is 14 pmol/ml/µg prt; the “inhibition of cAMP production, 10 nM” value stood at 11 pmol/ml/µg prt; the “inhibition of cAMP production, 100 nM” value came out at 7 pmol/ml/µg prt; the “inhibition of cAMP production, 1 µM” value was found to be 3 pmol/ml/µg prt. In addition, the “inhibition of cAMP production, 10 µM” value was found to be 0 pmol/ml/µg prt.

B4: the “inhibition of cAMP production, 1 nM” value came out at 14 pmol/ml/µg prt; the “inhibition of cAMP production, 10 nM” value came to 11 pmol/ml/µg prt; the “inhibition of cAMP production, 100 nM” value is 7 pmol/ml/µg prt; the “inhibition of cAMP production, 1 µM” value was 3 pmol/ml/µg prt. The “inhibition of cAMP production, 10 µM” value stood at 0 pmol/ml/µg prt.

For B5, the “inhibition of cAMP production, 1 nM” value came out at 5 pmol/ml/µg prt; the “inhibition of cAMP production, 10 nM” value was 3 pmol/ml/µg prt; the “inhibition of cAMP production, 100 nM” value came out at 0 pmol/ml/µg prt; the “inhibition of cAMP production, 1 µM” value turned out to be 0 pmol/ml/µg prt. Also, the “inhibition of cAMP production, 10 µM” value came to 0 pmol/ml/µg prt.

For B6, the “inhibition of cAMP production, 1 nM” value turned out to be 4 pmol/ml/µg prt; the “inhibition of cAMP production, 10 nM” value was 3 pmol/ml/µg prt; the “inhibition of cAMP production, 100 nM” value came out at 0 pmol/ml/µg prt; the “inhibition of cAMP production, 1 µM” value amounted to 0 pmol/ml/µg prt. Further, the “inhibition of cAMP production, 10 µM” value amounted to 0 pmol/ml/µg prt.

With B7, the “inhibition of cAMP production, 1 nM” value was 4 pmol/ml/µg prt; the “inhibition of cAMP production, 10 nM” value was 2 pmol/ml/µg prt; the “inhibition of cAMP production, 100 nM” value turned out to be 0 pmol/ml/µg prt; the “inhibition of cAMP production, 1 µM” value was 0 pmol/ml/µg prt. The “inhibition of cAMP production, 10 µM” value was determined as 0 pmol/ml/µg prt.

With B8, the “inhibition of cAMP production, 1 nM” value amounted to 5 pmol/ml/µg prt; the “inhibition of cAMP production, 10 nM” value came to 3 pmol/ml/µg prt; the “inhibition of cAMP production, 100 nM” value worked out at 0 pmol/ml/µg prt; the “inhibition of cAMP production, 1 µM” value worked out at 0 pmol/ml/µg prt. Moreover, the “inhibition of cAMP production, 10 µM” value came to 0 pmol/ml/µg prt.

In the case of B9, the “inhibition of cAMP production, 1 nM” value was 10 pmol/ml/µg prt; the “inhibition of cAMP production, 10 nM” value was 8 pmol/ml/µg prt; the “inhibition of cAMP production, 100 nM” value was 6 pmol/ml/µg prt; the “inhibition of cAMP production, 1 µM” value worked out at 4 pmol/ml/µg prt. For the same molecule, the “inhibition of cAMP production, 10 µM” value turned out to be 1 pmol/ml/µg prt.

B10: the “inhibition of cAMP production, 1 nM” value came out at 0 pmol/ml/µg prt; the “inhibition of cAMP production, 10 nM” value was found to be 0 pmol/ml/µg prt; the “inhibition of cAMP production, 100 nM” value came to 0 pmol/ml/µg prt; the “inhibition of cAMP production, 1 µM” value turned out to be 0 pmol/ml/µg prt. For the same molecule, the “inhibition of cAMP production, 10 µM” value stood at 0 pmol/ml/µg prt.

In the case of B11, the “inhibition of cAMP production, 1 nM” value was found to be 6 pmol/ml/µg prt; the “inhibition of cAMP production, 10 nM” value turned out to be 5 pmol/ml/µg prt; the “inhibition of cAMP production, 100 nM” value stood at 2 pmol/ml/µg prt; the “inhibition of cAMP production, 1 µM” value is 0 pmol/ml/µg prt. Further, the “inhibition of cAMP production, 10 µM” value stood at 0 pmol/ml/µg prt.

The values are drawn from patent US20120021972A1 (CADILA HEALTHCARE, published 2012).
